Legend:
[1] = biological target: T1, Transmembrane activator and CAML interactor (TACI) on cells (UniProt O14836 1-293, limits assumed); assay: flow cytometry on JVM2 cells (endogenous TACI)
T1 construct: whole, on cells; also called tumor necrosis factor receptor superfamily member 13B (TNFRSF13B)
T1 sequence (looked up): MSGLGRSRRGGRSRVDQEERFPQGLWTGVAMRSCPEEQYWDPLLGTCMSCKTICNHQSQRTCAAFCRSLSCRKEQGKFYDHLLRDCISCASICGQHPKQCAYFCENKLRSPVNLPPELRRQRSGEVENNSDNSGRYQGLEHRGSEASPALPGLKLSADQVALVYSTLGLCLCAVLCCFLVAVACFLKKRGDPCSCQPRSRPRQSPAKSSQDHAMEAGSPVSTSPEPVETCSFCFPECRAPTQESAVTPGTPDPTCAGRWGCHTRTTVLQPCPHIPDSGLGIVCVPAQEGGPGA
Protocol: (§1) Cells were spun down at 1200 rpm for 6 minutes at 4° C. to remove primary antibodies. Cells were then washed once with 200 μL of full medium per well. Samples were detected with premixed anti-His Biotin Streptavidin Alexa fluor 647 by adding 100 μL of diluted secondary antibody and incubated at 4° C. for 30 minutes in the dark. Samples were spun down at 1200 rpm for 5 minutes at 4° C. and washed twice with 200 μL of 1×PBS per well. Reconstituted samples in 200 μL of 1×PBS and read on Attune NxT cytometer. Analysis was done by Attune NxT software plotting the overlaying the histogram of anti-BCMA scFvs binding onto both negative and target cell lines. […] The BCMA cell binding affinity for exemplary anti-BCMA antibodies (in scFv format) was also generated with serial diluted scFvs as described above.
(§2) Anti-TACI scFv binders have been identified through Anti-TACI supernatant FACS screening assay with JVM2, MM1.R and RPMI8226 cell lines as described in above supernatant FACS screening assay. 200 nM of purified scFvs were subjected into FACS binding assay with TACI negative cell lines K562, H929 and TACI expressing cancer cell lines of JVM2, MM1.R, RPMI8226. The assay procedure and data analysis were described in Example 1 above.

[2] = biological target: T1, Transmembrane activator and CAML …; assay: flow cytometry on MM1R cells (endogenous TACI)
Protocol: as §1, §2

[3] = biological target: T1, Transmembrane activator and CAML …; assay: flow cytometry on MM1S cells (endogenous TACI)
soluble recombinant TACI = biological target: T2, soluble recombinant TACI (UniProt O14836 1-165, limits assumed); assay: ELISA, recombinant TACI immobilized on 384 well plate
T2 construct: Immobilized on a 384 well plate; construct not described
T2 sequence (looked up): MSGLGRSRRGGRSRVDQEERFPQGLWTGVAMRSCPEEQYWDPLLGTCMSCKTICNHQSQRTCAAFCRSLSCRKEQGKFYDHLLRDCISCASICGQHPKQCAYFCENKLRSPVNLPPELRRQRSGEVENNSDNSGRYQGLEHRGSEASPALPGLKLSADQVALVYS
Protocol: Purified anti-TACI scFvs were subjected to ELISA binding assay. Recombinant TACI and negative protein were immobilized on the 384 well plate. 200 nM of anti-TACI scFv clones were serial diluted and tested for binding in the assay as described above.

[4] = biological target: T1, Transmembrane activator and CAML …; assay: flow cytometry on RPMI8226 cells (endogenous TACI)
Protocol: as §1, §2

B1: TC-03 (anti-TACI antibody in scFv format) (scFv, not shown: small tags and cut ends)
scFv: EVQLVESGGGLVQPGGSLRLSCATSGFTVNSDYMSWVRQSPEKGLEWVSFIYRGGSTYYADSVKGRFTVSRDTSKNTLYLQMNSLRVEDTAVYYCARGLGSSSDYWGQGTLVTVSSGGGGSGGGGSGGGGSSYELTQPHSVSESPGKTVTISCTRSSGSIANNYVQWYRHRPGSAPSTVIFEDDHRPSEVPDRFSGSIDSSSNSASLTISGLKTEDEADYYCQSYDGIDHYVFGTGTKLTVL
notes: Human scFv from mRNA display (live cell selections), VH-(G4S)3-VL
EC50 [1]: 26.8 nM | EC50 [2]: 14 nM | EC50 [3]: 46.7 nM | binding result (soluble recombinant TACI): no binding (tested: 200 nM, serial diluted) | EC50 [4]: 830 nM

Source: US20260097076A1 (ELPIS BIOPHARMACEUTICALS, published 2026)
